Key:
His-p53 wild-type = molecular target: T1, His-p53 wild-type (human, UniProt P04637 1-393); assay: pull-down; details: both partners purified
T1 construct: also called His-tagged p53; WT p53; source: E. coli, purified (Ni-NTA agarose); not shown: His, N-terminal, kept

[1] = molecular target: T2, FLAG-p53 wild type, from 293T cells (human, UniProt P04637 1-393); assay: pull-down; details: both partners purified
T2 construct: also called FLAG-p53 (WT); p53 protein (WT); source: 293T, transfected, with or without ionizing radiation (20 Gy), purified on anti-FLAG antibody resin

B1: purified recombinant BZLF1 protein (natural protein)
chain: MMDPNSTSEDVKFTPDPYQVPFVQAFDQATRVYQDLGGPSQAPLPCVLWPVLPEPLPQGQLTAYHVSTAPTGSWFSAPQPAPENAYQAYAAPQLFPVSDITQNQQTNQAGGEAPQPGDNSTVQTAAAVVFACPGANQGQQLADIGVPQPAPVAAPARRTRKPQQPESLEECDSELEIKRYKNRVASRKCRAKFKQLLQHYREVAAAKSSENDRLRLLLKQMCPSLDVDSIIPRTPDVLHEDLLNF
notes: also called EBV BZLF1 protein; source: Hi-Five cells infected with recombinant baculovirus AcBZLF1, purified (extracted from nuclei with 0.6 M NaCl; purity more than 90%)
- binding result (His-p53 wild-type): binds
- binding result [1]: binds

From PMC2712087 (PLoS Pathogens, 2009)
